Laboratory results as given in paper PMC8519809 (Cell Reports, 2021).

Key:
[1] = molecular target: T1, MERS stem helix peptide (MERS-CoV); test: crystal structure
T1 chain: DFQDELDEFFKNVST

[2] = molecular target: T2, SARS-CoV-2 stem helix peptide (SARS-CoV-2); test: crystal structure
T2 chain: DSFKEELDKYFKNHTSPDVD

B1: Fab22 (Fab, V domains shown)
VH: EVQLQQPGPVLVKPGASVRMSCKASGYRITDNFMNWVKQSHGKSLEWIGIINPYNGGTKYNQKFKGKATLTVDTSSSTAYMELNSLTSEDSAVYYCTRVRGNDYHGRAMDYWGQGTSVTVSS
VL: DVVLTQTPLSLPVNIGDQASISCKSTKSLLNRDGFTFLDWYLQKPGQSPQLLIYLVSNRFSGVPDRFSGSGSGTDFTLKISRVEAEDLGVYYCFQSNYLFTFGSGTKLEIK
binding result [1]: binds

B2: LCmod-Fab22 (Fab, V domains shown)
VH: B1 VH
VL: B1 VL
binding result [2]: binds
